Experimental data published in publication PMC4767637.

Target: STAT3 (127-711)-His6 I568F (HIES mutant) (human) (UniProt P40763)
Test: ITC

Sequence of STAT3 (127-711)-His6 I568F (HIES mutant) (human) (P40763 127-711 I568F): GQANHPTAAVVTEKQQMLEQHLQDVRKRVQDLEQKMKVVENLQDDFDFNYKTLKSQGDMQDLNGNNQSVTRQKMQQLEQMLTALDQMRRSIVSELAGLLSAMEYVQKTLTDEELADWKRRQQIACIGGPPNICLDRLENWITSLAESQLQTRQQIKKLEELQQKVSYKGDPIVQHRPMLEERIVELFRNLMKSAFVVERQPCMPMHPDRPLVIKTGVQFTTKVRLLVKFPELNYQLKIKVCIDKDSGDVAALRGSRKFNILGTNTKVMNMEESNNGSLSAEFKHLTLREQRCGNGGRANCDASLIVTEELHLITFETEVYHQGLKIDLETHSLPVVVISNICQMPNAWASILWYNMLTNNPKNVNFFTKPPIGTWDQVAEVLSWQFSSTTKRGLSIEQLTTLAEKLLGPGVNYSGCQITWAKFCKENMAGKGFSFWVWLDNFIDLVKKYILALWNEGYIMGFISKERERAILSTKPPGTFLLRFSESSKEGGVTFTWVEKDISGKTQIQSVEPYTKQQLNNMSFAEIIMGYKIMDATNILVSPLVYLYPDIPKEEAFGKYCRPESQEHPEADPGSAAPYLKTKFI

phosphotyrosine peptide derived from gp130 (pY904)
fold reduction in binding affinity against WT STAT3: 5 fold
